Data on 2 proteins can be found in publication doi:10.1101/2022.02.23.481653 (bioRxiv, 2022).

This series concerns the molecule itself. The series can be described thus: native gel or EMSA. On the technique in general: A gel shift assay detects complexes by their altered migration in electrophoresis.

B1: SEPT2-msfGFP (wild type) (natural protein)
chain: MSKQQPTQFINPETPGYVGFANLPNQVHRKSVKKGFEFTLMVVGESGLGKSTLINSLFLTDLYPERVIPGAAEKIERTVQIEASTVEIEERGVKLRLTVVDTPGYGDAINCRDCFKTIISYIDEQFERYLHDESGLNRRHIIDNRVHCCFYFISPFGHGLKPLDVAFMKAIHNKVNIVPVIAKADTLTLKERERLKKRILDEIEEHNIKIYHLPDAESDEDEDFKEQTRLLKASIPFSVVGSNQLIEAKGKKVRGRLYPWGVVEVENPEHNDFLKLRTMLITHMQDLQEVTQDLHYENFRSERLKRGGRKVENEDMNKDQILLEKEAELRRMQEMIARMQAQMQMQMQGGDGDGGALGHHV
As usually defined, the stoichiometry N is the number of molecules, sites or subunits per partner or assembly. On to B1, for which the “stoichiometry N” value was found to be 2.

B2: SEPT2NCmut-msfGFP (SEPT2 F20D, V27D) (natural protein)
chain: MSKQQPTQFINPETPGYVGDANLPNQDHRKSVKKGFEFTLMVVGESGLGKSTLINSLFLTDLYPERVIPGAAEKIERTVQIEASTVEIEERGVKLRLTVVDTPGYGDAINCRDCFKTIISYIDEQFERYLHDESGLNRRHIIDNRVHCCFYFISPFGHGLKPLDVAFMKAIHNKVNIVPVIAKADTLTLKERERLKKRILDEIEEHNIKIYHLPDAESDEDEDFKEQTRLLKASIPFSVVGSNQLIEAKGKKVRGRLYPWGVVEVENPEHNDFLKLRTMLITHMQDLQEVTQDLHYENFRSERLKRGGRKVENEDMNKDQILLEKEAELRRMQEMIARMQAQMQMQMQGGDGDGGALGHHV
For the protein B2, the “stoichiometry N” value was determined as 2.
